Reference: US20180237519A1 (OHIO STATE INNOVATION FOUNDATION, published 2018)

Target: T1, CS-1 (human, UniProt Q9NQ25 23-335)
T1 sequence (looked up): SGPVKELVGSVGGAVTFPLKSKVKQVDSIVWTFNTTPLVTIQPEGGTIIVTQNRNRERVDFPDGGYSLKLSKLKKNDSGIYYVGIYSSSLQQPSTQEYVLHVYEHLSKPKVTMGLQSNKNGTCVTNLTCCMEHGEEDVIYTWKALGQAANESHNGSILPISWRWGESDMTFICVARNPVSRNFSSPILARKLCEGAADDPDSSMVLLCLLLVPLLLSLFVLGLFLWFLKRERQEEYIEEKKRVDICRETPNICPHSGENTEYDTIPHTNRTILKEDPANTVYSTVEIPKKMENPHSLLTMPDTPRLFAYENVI
Test: cell-based or functional assay

B1: anti-CS-1 tri-specific cytotoxic lymphocytes engager (TriCLE) (bispecific antibody)
chain: QVQLVESGGGLVKPGGSLRLSCAASGFTFSSYGMHWVRQAPGKGLEWVAFIRYDGSNKYYADSVKGRFTISRDNSKNTLYLQMNSLRAEDTAVYYCAKDRGLGDGTYFDYWGQGTTVTVSSGGGGSGGGGSGGGGSQSALTQPASVSGSPGQSITISCSGSSSNIGNNAVNWYQQLPGKAPKLLIYYDDLLPSGVSDRFSGSKSGTSAFLAISGLQSEDEADYYCAAWDDSLNGPVFGGGTKLTVLPSGQAGAAASESLFVSNHAYKLELKTGAGFTLPTSYHQQCYYVALDEAQVNSITFTFDTGSGSGTFRDPVGTYRYSASYILLKPSQGPKQQYWAVGTIVDQSAKCTISVRDGVSTSMSKQSQTMVIDGGGGSGGGGSGGGGSSVTVSTGQGWYDMARTAIMTSRACYYVASDESTPSSLQMYATSSSKDVTLTAKDKFKQNLRTESDSPHIMGIWELGQGPRQKVWNMWYTTFSYGSAKCSLKVSAGPRVLEAGPQQLQVQSHHHHHH
- EC50 of cytotoxicity of TriCLE-activated PBMCs against H929: 1.2 nM
- EC50 of cytotoxicity of TriCLE-activated PBMCs against MM1.s: 0.003 nM
- EC50 of cytotoxicity of TriCLE-activated PBMCs against RPMI-8226: 1.8 nM
